The results in this text go back to the RNAGym collection of RNA variant scans (doi:10.1021/acssynbio.7b00057).

B1: Pistol ribozyme (parent)
chain: GGGUCGUUGUUCCAUAAUCGCGUGGAUAUGGCACGCAAGUUUCUACCGGGCACCGUAAAUGUCCGACUGGAGCCGUUCGGGCGGCUAUAAACAGACCUCAGGCCCGAAGCGUGGCGGCACCUGCCGCCGGUGGUAAAAAAGAUCGGAAGAGCACACGUCU

This data set covers variants of B1. The experiment in a line: aptazyme ON/OFF ratio, guanine; higher = stronger switching; co-transcriptional cleavage with and without guanine.
Regarding U7A U8G G9C U11G C12U, the “aptazyme ON/OFF ratio” value is 1.43.
Regarding G9C U10A U11C C12A C13A, the “aptazyme ON/OFF ratio” value turned out to be 1.3.
To U7C U8A G9A U10C C12U C13A belongs 1.11.
Under U7G U8C U11C C12A C13U stands 1.46; under U8C G9A U10A U11G C12U C13G, 1.18; under U7C U8C U10C U11G C12U C13G, 1.23.
To U8C G9A U10G U11C C13U belongs 1.06; to G9U U10G U11A C12G C13U, 1.07; to U7G U8C U10A U11G C12G C13A, 1.22.
As to U7A G9C U10C U11A C12G C13G, the “aptazyme ON/OFF ratio” value is 1.16.
In the case of U7C U8C G9C U11G C13A, the “aptazyme ON/OFF ratio” value stood at 1.12.
On to U7G U8A G9A U10A U11A C12A C13G, for which the “aptazyme ON/OFF ratio” value turned out to be 1.04.
To U7G U8C G9A U11C C12G C13U belongs 1.16.
Under U7G U8G G9U U10A U11C C13U stands 1.07; under U7G U8G U10G U11G C12G, 1.26.
To U7C U8C G9A U10A C13G belongs 1.1.
Regarding U7C U8G U10C U11A C12A, the “aptazyme ON/OFF ratio” value came to 2.52.
Consider U7A U8G U10C C12A C13U, for which the “aptazyme ON/OFF ratio” value is 1.51.
Under U7G G9A U10A U11C C12U stands 1.05; under U7C U8G U10C C12U C13U, 2.3; under U7A U8A G9U U10A C12U C13G, 1.23.
To U7G U8C G9A U10C belongs 3.27; to G9C U10C U11G C12A C13U, 1.02; to U7A U8C U10A C12A C13G, 1.15.
As to U7G U8G G9C U10G U11A C12A C13A, the “aptazyme ON/OFF ratio” value was determined as 1.14.
Under U7C U8A G9A U10G U11A C12G stands 1.16; under U7G G9A U10A U11C C13U, 1.06.
Under U7G U8G G9A U10G U11A C13G stands 1.11; under U7G U8G G9A U11G C12G C13U, 1.23.
Under U7C U8G G9U U10C C12U C13G stands 1.32; under U7G U8A G9A U10C U11G C12U C13A, 1.1; under U7C U10C U11A C12U, 1.42.
Take U7G U8G U10C U11G C12G C13U: the “aptazyme ON/OFF ratio” value was determined as 1.32.
To U7A U8G G9U U10C C12A C13A belongs 1.46; to U8C G9A U10A U11A C12U C13A, 1.28.
To U7G U8A G9U U11G C12A C13A belongs 1.09; to U7G U8G G9U U10A U11G, 1.27; to U7A U8C U10C C12A C13A, 1.25.
To U7A G9U U10C U11A C12A C13U belongs 1.21; to U7A U8C G9A U10G, 1.37.
Regarding U7A U8G G9C C13G, the “aptazyme ON/OFF ratio” value came to 1.11.
Under U8G U10G U11C C12U stands 1.02; under U7G U8C G9U U10C C12G C13G, 1.22; under U7C G9U U10G U11C C12G C13G, 1.11.
To U7A U8A G9A U10C U11G belongs 1.14.
With U7A U8G G9C U10G U11C C13G, the “aptazyme ON/OFF ratio” value turned out to be 1.08.
As for U8G G9C U10A U11C C13U, the “aptazyme ON/OFF ratio” value came to 1.03.
Turning to U7C U8G G9C U10A C13A, the “aptazyme ON/OFF ratio” value was found to be 1.14.
For U10A U11C C12U, the “aptazyme ON/OFF ratio” value worked out at 1.04.
To U7C U8A G9C U10C U11G C12A C13G belongs 1.17; to U7C U8G G9C U10C U11G C13A, 1.11.
For U7G U8C U10C C12U C13G, the “aptazyme ON/OFF ratio” value stood at 1.19.
To U7G U8C G9A U10A U11C C12U C13A belongs 1.14; to U7C U8G U10C U11A C12G C13G, 1.12; to U7G U8C G9C U10A U11C C12G C13U, 1.31.
Under U7A U8C G9C C12G C13U stands 1.18; under U7G U8C U10C U11C C12A, 1.29; under U8G G9U U10A U11C C12A C13U, 1.16.
Under U8C G9A U10A U11C stands 1.05; under U7C U8C G9C U10A C12U C13G, 1.13.
For the variant U8G U10C C13A, the “aptazyme ON/OFF ratio” value was 1.05.
To U8G G9A U10G U11G C13G belongs 1.15; to U7A U8C G9U U11G C12U C13G, 1.14; to U7A G9U U11A C13G, 1.08.
To U7A G9C U10C U11C C13A belongs 1.01; to U7A U8C G9A U10A U11A C12A C13G, 1.18.
Under U7G G9C U10A C12U C13G stands 1.05; under U8A G9A U10G U11A, 1.02; under U7A U10G U11G C13U, 1.27.
Consider U8A G9C C12A C13U, for which the “aptazyme ON/OFF ratio” value came to 1.25.
Turning to U7A G9C U10G C12A C13A, the “aptazyme ON/OFF ratio” value was determined as 1.08.
Under U7G U8A G9A U10G U11A C13A stands 1.06; under U7A U10C C12A C13U, 1.21.
To U7G G9U U10G U11C C12U C13U belongs 1.44.
To U7C U8C G9C U10C C12U C13A belongs 1.1; to U7C U8C G9C U10C C12U C13U, 1.09; to U7A U8G G9A U10A C12A C13U, 1.37.
Take U8G G9C U11C C12A C13U: the “aptazyme ON/OFF ratio” value was 1.04.
On to U7C U8G G9U U11C C12A C13U, for which the “aptazyme ON/OFF ratio” value amounted to 1.33.
On to U7A G9C U11C C12U C13A, for which the “aptazyme ON/OFF ratio” value is 1.04.
To U8A G9A U11G C12U belongs 1.35; to U7A U10G C12G, 1.36; to U8C G9C U10G U11C C12G C13A, 1.14.
